Experimental data as given in patent US20250179163A1 (Sanofi, published 2025).

How the values were obtained:
Human TGFβ1 [1] = biological target: T1, Human TGFβ1 (human, UniProt P01137 279-390); assay: SPR (Biacore T200), TGFβ1 amine-coupled to CM5 chip, Fab injected
T1 construct: also called Transforming Growth Factor-β1

Human TGFβ1 [2] = biological target: T1, Human TGFβ1
Human TGFβ1 [3] = biological target: T1, Human TGFβ1; assay: Octet QK384, Fab from conditioned medium captured on anti-Fab-CH1 biosensors, 200 nM TGFβ1; qualitative
Method: Conditioned media (CM) was harvested 4 days post-transfection and the Octet QK384 instrument was used to calculate expression level and TGFβ1 binding in a single assay. […] Binding to anti-Fab-CH1 biosensors was measured for 2 min at 1000 rpm and 30° C. plate temperature for quantitation and capture. The sensors were then moved into wells containing 200 nM of TGFβ1 for binding assessment.

T1 sequence (P01137 279-390 limits assumed): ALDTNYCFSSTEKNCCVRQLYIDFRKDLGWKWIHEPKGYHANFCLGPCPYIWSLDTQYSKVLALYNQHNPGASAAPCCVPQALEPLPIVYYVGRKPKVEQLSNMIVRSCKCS

**Q.** What does the source list for GC1008 Fab?
**A.** Kd (Human TGFβ1 [1]): 2.9 nM; koff (Human TGFβ1 [1]): 0.00208 s⁻¹; kon (Human TGFβ1 [1]): 711000 M⁻¹ s⁻¹

**Q.** How did the IC50 (read off the curve) (Human TGFβ1 [2]) turn out when GC1008 control (antibody) was run?
**A.** 1 ng/mL

B1: CAT192 A25S Fab (Fab, V domains shown)
VH: EVQLVESGGGVVQPGRSLRLSCAASGFTFSSYGMHWVRQAPGKELEWVAVISYDGSIKYYADSVKGRFTISRDNSKNTLYLQMNSLRAEDTAVYYCARTGEYSGYDTDPQYSWGQGTTVTVSS
VL: EIVLTQSPSSLSASVGDRVTITCRSSQGIGDDLGWYQQKPGKAPILLIYGTSTLQSGVPSRFSGSGSGTDFTLTINSLQPEDFATYYCLQDSNYPLTFGGGTRLEIKR
notes: Control light chain mutant in the Fv; His-tagged HC Fab, HC limits see recheck; also called A25S mutant
**Q.** Does B1 bind (Human TGFβ1 [3])?
**A.** binds
